Consider 16 molecules from patent US20120107330A1 (published 2012).

Experiment [1] deals with T1, human TNFR1 on MRC-5 cells (human, UniProt P19438 30-455).
T1 sequence (looked up): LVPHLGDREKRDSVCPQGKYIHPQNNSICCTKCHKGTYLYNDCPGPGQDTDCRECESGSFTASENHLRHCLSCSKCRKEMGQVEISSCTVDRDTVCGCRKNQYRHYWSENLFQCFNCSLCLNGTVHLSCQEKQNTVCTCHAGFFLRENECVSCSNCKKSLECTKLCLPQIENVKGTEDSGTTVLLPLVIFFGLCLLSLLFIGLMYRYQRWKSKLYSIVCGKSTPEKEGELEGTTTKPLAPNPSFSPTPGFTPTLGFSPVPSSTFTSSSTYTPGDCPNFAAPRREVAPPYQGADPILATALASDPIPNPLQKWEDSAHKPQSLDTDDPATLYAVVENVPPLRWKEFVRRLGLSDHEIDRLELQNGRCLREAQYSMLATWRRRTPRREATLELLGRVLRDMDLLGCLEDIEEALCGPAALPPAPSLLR
Briefly: cell-based or functional assay.

In experiment [2] the target is T2, human TNFR1 (recombinant, R&D Systems cat no. 636-R1/CF, biotinylated) (human, UniProt P19438 30-211, limits assumed, biotinylated with EZ-Link NHS-LC-LC-biotin).
T2 construct: it is not tied to the BIAcore reagent; also called p55; hTNFR1
T2 sequence (looked up): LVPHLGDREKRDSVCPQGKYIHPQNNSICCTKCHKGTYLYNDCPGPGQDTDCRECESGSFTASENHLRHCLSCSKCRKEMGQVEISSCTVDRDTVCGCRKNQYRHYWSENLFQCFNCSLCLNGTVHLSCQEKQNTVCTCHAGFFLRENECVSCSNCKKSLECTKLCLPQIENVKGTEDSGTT
Briefly: BIAcore T100, biotinylated human TNFR1 on chip. The procedure:
Furthermore, the affinity and potency of the purified fusion molecules were determined using a BIAcore T100 and the MRC5 cell assay, respectively. The BIAcore T100 is a highly sensitive BIAcore version ideally suited for determination of high affinity binders (Papalia et al., Anal Biochem. 359, p 112 (2006)). Biotinylated, human TNFR1 was coated on the chip and each of the twelve AlbudAb fusions were passed over this surface at four different concentrations (2, 10, 50 and 250 nM). […] This improvement is observed regardless of the AlbudAb used for pairing and largest for the pairings with DOM7h-14-18. A second experiment used to establish if the different pairings affected the functional activity of the anti-TNFR1 dAb was the MRC5 cell assay (Table 8). A more marked difference between the pairings is observed in the MRC5 assay, in which the best potencies are observed in pairings with DOM7h-11-3 and DOM7h-11-12 while pairings with DOM7h-14-10 (DMS0117) lead to significant decreases in potency.

Experiment [3] has as its target T2, human TNFR1 (recombinant, R&D Systems …). Briefly: BIAcore, human TNFR1.
Experiment [4] addresses T1, human TNFR1 on MRC-5 cells. Briefly: cell-based or functional assay. This is another data set of the same source.

B1: DMS0115 (bispecific antibody)
chain: EVQLLESGGGLVQPGGSLRLSCAASGFTFVKYSMGWVRQAPGKGLEWVSQISNTADRTYYAHSVKGRFTISRDNSKNTLYLQMNSLRAEDTAVYYCAIYTGRWVPFEYWGQGTLVTVSSASTSGPSDIQMTQSPSSLSASVGDRVTITCRASRPIGTTLSWYQQKPGKAPKLLILWNSRLQSGVPSRFSGSGSGTDFTLTISSLQPEDFATYYCAQAGTHPTTFGQGTKVEIKR
notes: anti-TNFR1 dAb / AlbudAb in-line fusion
With B1, the “MRC5 (ND50 in nM)” value in experiment [1] was 1.7 nM. In experiment [2], the Kd amounted to 0.16 nM, the koff came out at 5.8e-05 s⁻¹ and the kon turned out to be 360000 M⁻¹ s⁻¹.

B2: DMS0116 (bispecific antibody)
chain: EVQLLESGGGLVQPGGSLRLSCAASGFTFVKYSMGWVRQAPGKGLEWVSQISNTADRTYYAHSVKGRFTISRDNSKNTLYLQMNSLRAEDTAVYYCAIYTGRWVPFEYWGQGTLVTVSSASTSGPSDIQMTQSPSSLSASVGDRVTITCRASRPIGTMLSWYQQKPGKAPKLLILFGSRLQSGVPSRFSGSGSGTDFTLTISSLQPEDFATYYCAQAGTHPTTFGQGTKVEIKR
notes: as for B1
For the molecule B2, the “MRC5 (ND50 in nM)” value in experiment [1] was found to be 1.7 nM. Further, in experiment [2], the Kd worked out at 0.14 nM, the koff amounted to 5.4e-05 s⁻¹ and the kon was 370000 M⁻¹ s⁻¹.

B3: DMS0118 (bispecific antibody)
chain: EVQLLESGGGLVQPGGSLRLSCAASGFTFVKYSMGWVRQAPGKGLEWVSQISNTADRTYYAHSVKGRFTISRDNSKNTLYLQMNSLRAEDTAVYYCAIYTGRWVPFEYWGQGTLVTVSSASTSGPSDIQMTQSPSSLSASVGDRVTITCRASQWIGSQLSWYQQKPGKAPKLLIMWRSSLQSGVPSRFSGSGSGTDFTLTISSLQPEDFATYYCAQGLMKPMTFGQGTKVEIKR
notes: as for B1
With B3, in experiment [1], the “MRC5 (ND50 in nM)” value came to 1.4 nM. In experiment [2], the Kd is 0.076 nM, the “fold higher affinity than the other pairings” value was 3 fold, the koff was found to be 4.9e-05 s⁻¹ and the on-rate (kon) is 640000 M⁻¹ s⁻¹.

B4: DMS0111 (bispecific antibody)
chain: EVQLLESGGGLVQPGGSLRLSCAASGFTFVKYSMGWVRQAPGKGLEWVSQISNTADRTYYAHSVKGRFTISRDNSKNTLYLQMNSLRAEDTAVYYCAIYTGRWVPFEYWGQGTLVTVSSASTDIQMTQSPSSLSASVGDRVTITCRASRPIGTTLSWYQQKPGKAPKLLILWNSRLQSGVPSRFSGSGSGTDFTLTISSLQPEDFATYYCAQAGTHPTTFGQGTKVEIKR
notes: as for B1
As for B4, the “MRC5 (ND50 in nM)” value in experiment [1] worked out at 1.6 nM. Also, in experiment [2], the Kd came to 0.17 nM, the koff is 6.2e-05 s⁻¹ and the kon amounted to 370000 M⁻¹ s⁻¹.

B5: DMS0112 (bispecific antibody)
chain: EVQLLESGGGLVQPGGSLRLSCAASGFTFVKYSMGWVRQAPGKGLEWVSQISNTADRTYYAHSVKGRFTISRDNSKNTLYLQMNSLRAEDTAVYYCAIYTGRWVPFEYWGQGTLVTVSSASTDIQMTQSPSSLSASVGDRVTITCRASRPIGTMLSWYQQKPGKAPKLLILFGSRLQSGVPSRFSGSGSGTDFTLTISSLQPEDFATYYCAQAGTHPTTFGQGTKVEIKR
notes: as for B1
Turning to B5, the “MRC5 (ND50 in nM)” value in experiment [1] amounted to 1.3 nM. Further, in experiment [2], the Kd came to 0.14 nM, the koff amounted to 5.5e-05 s⁻¹ and the kon came out at 400000 M⁻¹ s⁻¹.

B6: DMS0114 (bispecific antibody)
chain: EVQLLESGGGLVQPGGSLRLSCAASGFTFVKYSMGWVRQAPGKGLEWVSQISNTADRTYYAHSVKGRFTISRDNSKNTLYLQMNSLRAEDTAVYYCAIYTGRWVPFEYWGQGTLVTVSSASTDIQMTQSPSSLSASVGDRVTITCRASQWIGSQLSWYQQKPGKAPKLLIMWRSSLQSGVPSRFSGSGSGTDFTLTISSLQPEDFATYYCAQGLMKPMTFGQGTKVEIKR
With B6, the “MRC5 (ND50 in nM)” value in experiment [1] was found to be 3.7 nM.

B7: DMS0121 (bispecific antibody)
chain: EVQLLESGGGLVQPGGSLRLSCAASGFTFVKYSMGWVRQAPGKGLEWVSQISNTADRTYYAHSVKGRFTISRDNSKNTLYLQMNSLRAEDTAVYYCAIYTGRWVPFEYWGQGTLVTVSSASGGGGSGGGGSGGGGSDIQMTQSPSSLSASVGDRVTITCRASRPIGTTLSWYQQKPGKAPKLLILWNSRLQSGVPSRFSGSGSGTDFTLTISSLQPEDFATYYCAQAGTHPTTFGQGTKVEIKR
notes: as for B1
As for B7, the “MRC5 (ND50 in nM)” value in experiment [1] amounted to 1.8 nM. Moreover, in experiment [2], the Kd was determined as 0.2 nM, the koff came to 6e-05 s⁻¹ and the kon came to 300000 M⁻¹ s⁻¹.

B8: DMS0122 (bispecific antibody)
chain: EVQLLESGGGLVQPGGSLRLSCAASGFTFVKYSMGWVRQAPGKGLEWVSQISNTADRTYYAHSVKGRFTISRDNSKNTLYLQMNSLRAEDTAVYYCAIYTGRWVPFEYWGQGTLVTVSSASGGGGSGGGGSGGGGSDIQMTQSPSSLSASVGDRVTITCRASRPIGTMLSWYQQKPGKAPKLLILFGSRLQSGVPSRFSGSGSGTDFTLTISSLQPEDFATYYCAQAGTHPTTFGQGTKVEIKR
B8: the “MRC5 (ND50 in nM)” value in experiment [1] was determined as 1.5 nM.

B9: DMS0124 (bispecific antibody)
chain: EVQLLESGGGLVQPGGSLRLSCAASGFTFVKYSMGWVRQAPGKGLEWVSQISNTADRTYYAHSVKGRFTISRDNSKNTLYLQMNSLRAEDTAVYYCAIYTGRWVPFEYWGQGTLVTVSSASGGGGSGGGGSGGGGSDIQMTQSPSSLSASVGDRVTITCRASQWIGSQLSWYQQKPGKAPKLLIMWRSSLQSGVPSRFSGSGSGTDFTLTISSLQPEDFATYYCAQGLMKPMTFGQGTKVEIKR
notes: as for B1
As for B9, the “MRC5 (ND50 in nM)” value in experiment [1] is 1.9 nM. For the same molecule, in experiment [2], the Kd was 0.077 nM, the “fold higher affinity than the other pairings” value was determined as 3 fold, the koff turned out to be 3.5e-05 s⁻¹ and the kon is 450000 M⁻¹ s⁻¹.

B10: DMS0117 (bispecific antibody)
chain: EVQLLESGGGLVQPGGSLRLSCAASGFTFVKYSMGWVRQAPGKGLEWVSQISNTADRTYYAHSVKGRFTISRDNSKNTLYLQMNSLRAEDTAVYYCAIYTGRWVPFEYWGQGTLVTVSSASTSGPSDIQMTQSPSSLSASVGDRVTITCRASQWIGSQLSWYQQKPGKAPKLLIMWRSSLQSGVPSRFSGSGSGTDFTLTISSLQPEDFATYYCAQGLRHPKTFGQGTKVEIKR
B10: in experiment [1], the “MRC5 (ND50 in nM)” value is 25.9 nM.

B11: DOM1h-574-15 (other)
VH: EVQLLESGGGLVQPGGSLRLSCAASGFTFVKYSMGWVRQAPGKGLEWVSQISNTGDHTYYADSVKGRFTISRDNSKNTLYLQMNSLRAEDTAVYYCAIYTGRWEPFDYWGQGTLVTVSS
notes: VH dAb
In the case of B11, the Kd in experiment [3] was 20 nM. For the same molecule, the “MRC-5 ND50 (TNFα-mediated IL-8 release)” value in experiment [4] was 300 nM.

B12: DOM1h-574-19 (other)
VH: EVQLLESGGGLVQPGGSLRLSCAASGFTFGKYSMGWVRQAPGKDLEWVSQISNTGDHTYYADSVKGRFTISRDNSKNTLYLQMNSLRAEDTAVYYCAIYTGRWEPFDYWGQGTLVTVSS
Consider B12, for which the “MRC-5 ND50 (TNFα-mediated IL-8 release)” value in experiment [4] was found to be 140 nM.

B13: DOM1h-574 (other)
VH: EVQLLESGGGLVQPGGSLRLSCAASGFTFVKYSMGWVRQAPGKGLEWVSQISNTGGHTYYADSVKGRFTISRDNSKNTLYLQMNSLRAEDTAVYYCAKYTGHWEPFDYWGQGTLVTVSS
notes: VH dAb; also called parental dAb
For B13, the Kd in experiment [3] is 210 nM. The “MRC-5 ND50 (TNFα-mediated IL-8 release)” value in experiment [4] was found to be 2200 nM.

B14: DOM1h-574-7 (other)
VH: EVQLLESGGGLVQPGGSLRLSCAASGFTFVKYSMGWVRQAPGKGLEWVSQISNTGGHTYYADSVKGRFTISRDNSKNTLYLQMNSLRAEDTAVYYCAIYTGRWEPFDYWGQGTLVTVSS
notes: VH dAb
In the case of B14, in experiment [3], the equilibrium dissociation constant (Kd) was 48 nM. Further, in experiment [4], the “MRC-5 ND50 (TNFα-mediated IL-8 release)” value was determined as 580 nM.

B15: DOM1h-574-8 (other)
VH: EVQLLESGGGLVQPGGSLRLSCAASGFTFVKYSMGWVRQAPGKGPEWVSQISNTGGHTYYADSVKGRFTISRDNSKNTLYLQMNSLRAEDTAVYYCAIYTGRWEPFDYWGQGTLVTVSS
notes: VH dAb
Turning to B15, the Kd in experiment [3] is 5.7 nM. Besides, the “MRC-5 ND50 (TNFα-mediated IL-8 release)” value in experiment [4] was found to be 10 nM.

B16: DMS0123 (bispecific antibody)
chain: EVQLLESGGGLVQPGGSLRLSCAASGFTFVKYSMGWVRQAPGKGLEWVSQISNTADRTYYAHSVKGRFTISRDNSKNTLYLQMNSLRAEDTAVYYCAIYTGRWVPFEYWGQGTLVTVSSASGGGGSGGGGSGGGGSDIQMTQSPSSLSASVGDRVTITCRASQWIGSQLSWYQQKPGKAPKLLIMWRSSLQSGVPSRFSGSGSGTDFTLTISSLQPEDFATYYCAQGLRHPKTFGQGTKVEIKR
As to B16, the “MRC5 (ND50 in nM)” value in experiment [1] stood at 5 nM.
